Sequences and labels used below:
B1: FERM and PDZ domain-containing protein 4, residues 75 to 154; numbered along this chain, Q14CM0 (parent)
chain: APRKVEMRRDPVLGFGFVAGSEKPVVVRSVTPGGPSEGKLIPGDQIVMINDEPVSAAPRERVIDLVRSCKESILLTVIQP

± gives the uncertainty stated by the source.

The variants in this data set derive from B1. Description: abundance fitness (aPCA) (normalised: wild type 0, dead -1); higher = more abundant; growth selection in yeast, the domain comes from the species named. To be noted: Homo sapiens.
As to C69G, the abundance fitness is -0.209 ± 0.025.

For the variant C69E, the abundance fitness was -0.059 ± 0.029.

Regarding C69T, the abundance fitness was -0.044 ± 0.023.

In the case of C69I, the abundance fitness was -0.19 ± 0.03.

Consider C69N, for which the abundance fitness was -0.056 ± 0.027.

For C69P, the abundance fitness is -0.378 ± 0.028.

For the variant C69Q, the abundance fitness is -0.034 ± 0.027.

For the variant C69K, the abundance fitness is -0.089 ± 0.026.

Regarding C69M, the abundance fitness is -0.1 ± 0.028.

Consider C69F, for which the abundance fitness is -0.159 ± 0.029.

For the variant C69H, the abundance fitness was -0.064 ± 0.028.

C69S: the abundance fitness is -0.025 ± 0.021.

On to C69V, for which the abundance fitness was -0.091 ± 0.023.

C69R: the abundance fitness is -0.119 ± 0.022.

Take C69L: the abundance fitness is -0.236 ± 0.022.

In the case of C69W, the abundance fitness is -0.591 ± 0.034.

On to C69D, for which the abundance fitness was -0.323 ± 0.034.

C69A: the abundance fitness was 0.004 ± 0.023.

For S68L, the abundance fitness is -0.092 ± 0.022.

With S68Q, the abundance fitness is -0.001 ± 0.026.

For the variant S68E, the abundance fitness is -0.007 ± 0.025.

With S68D, the abundance fitness is -0.042 ± 0.032.

In the case of S68K, the abundance fitness was -0.043 ± 0.03.

Turning to S68Y, the abundance fitness was -0.089 ± 0.037.

For S68V, the abundance fitness was -0.17 ± 0.022.

For the variant S68F, the abundance fitness was -0.099 ± 0.037.

In the case of S68I, the abundance fitness is -0.214 ± 0.041.

S68W: the abundance fitness is -0.21 ± 0.025.

S68R: the abundance fitness is -0.048 ± 0.02.

Take S68T: the abundance fitness is -0.043 ± 0.026.

Consider S68A, for which the abundance fitness was -0.033 ± 0.023.

For S68M, the abundance fitness was -0.071 ± 0.028.

For the variant S68C, the abundance fitness was -0.082 ± 0.032.

In the case of S68P, the abundance fitness is -0.578 ± 0.033.

Take V66M: the abundance fitness was -0.004 ± 0.029.

For the variant V66W, the abundance fitness was -0.475 ± 0.029.

As for V66K, the abundance fitness was -0.692 ± 0.043.

Turning to V66L, the abundance fitness stood at 0.022 ± 0.022.

Take V66A: the abundance fitness was -0.219 ± 0.024.

Consider V66Y, for which the abundance fitness is -0.382 ± 0.041.

Take V66P: the abundance fitness is -0.881 ± 0.048.

For the variant V66H, the abundance fitness is -0.686 ± 0.056.

V66G: the abundance fitness is -0.73 ± 0.027.

Consider V66E, for which the abundance fitness was -0.427 ± 0.029.

For V66C, the abundance fitness is -0.08 ± 0.028.

Consider V66F, for which the abundance fitness is -0.056 ± 0.033.

On to V66S, for which the abundance fitness was -0.569 ± 0.028.

As to V66N, the abundance fitness is -0.733 ± 0.066.

V66Q: the abundance fitness was -0.451 ± 0.035.

As for V66R, the abundance fitness was -0.818 ± 0.028.

Turning to V66T, the abundance fitness was -0.18 ± 0.026.

For V66I, the abundance fitness was -0.009 ± 0.035.

Regarding V66D, the abundance fitness was -0.681 ± 0.048.

For the variant I63R, the abundance fitness is -0.033 ± 0.03.

For the variant I63T, the abundance fitness is -0.061 ± 0.033.

Regarding I63K, the abundance fitness was -0.032 ± 0.037.

In the case of I63N, the abundance fitness is 0.034 ± 0.039.

Take I63Q: the abundance fitness was -0.001 ± 0.042.

Take I63E: the abundance fitness was -0.031 ± 0.041.

On to I63F, for which the abundance fitness amounted to 0.016 ± 0.04.

On to I63L, for which the abundance fitness was determined as 0.009 ± 0.03.

Consider I63A, for which the abundance fitness is 0.005 ± 0.04.

With I63V, the abundance fitness was -0.002 ± 0.032.

Turning to I63S, the abundance fitness amounted to 0.021 ± 0.03.

As for I63M, the abundance fitness is -0.027 ± 0.035.

On to I63P, for which the abundance fitness is -0.846 ± 0.088.

Turning to I63Y, the abundance fitness is -0.087 ± 0.043.

Turning to I63C, the abundance fitness was -0.093 ± 0.044.

As to I63W, the abundance fitness was -0.041 ± 0.043.

For the variant I63D, the abundance fitness was -0.035 ± 0.044.

As for I63H, the abundance fitness was -0.003 ± 0.039.

As for L65C, the abundance fitness is -0.158 ± 0.034.

Consider L65S, for which the abundance fitness was -0.178 ± 0.024.

For the variant L65V, the abundance fitness is -0.105 ± 0.023.

Regarding L65N, the abundance fitness was -0.349 ± 0.043.

With L65F, the abundance fitness is -0.109 ± 0.041.

In the case of L65K, the abundance fitness is -0.022 ± 0.029.

Consider L65Y, for which the abundance fitness is -0.076 ± 0.039.

Take L65A: the abundance fitness is -0.056 ± 0.024.

Turning to L65E, the abundance fitness was -0.249 ± 0.028.

As to L65P, the abundance fitness is -0.841 ± 0.055.

Regarding L65D, the abundance fitness was -0.462 ± 0.04.

On to L65I, for which the abundance fitness is -0.052 ± 0.041.

With L65Q, the abundance fitness was -0.094 ± 0.03.

As to L65H, the abundance fitness is -0.205 ± 0.047.

As for L65R, the abundance fitness is -0.093 ± 0.02.

In the case of L65W, the abundance fitness was -0.244 ± 0.025.

Regarding L65G, the abundance fitness was -0.377 ± 0.022.

As to L65T, the abundance fitness is -0.114 ± 0.028.

In the case of L65M, the abundance fitness is -0.002 ± 0.031.

With E71P, the abundance fitness is -0.219 ± 0.033.

As for E71M, the abundance fitness is -0.198 ± 0.034.

Turning to E71N, the abundance fitness was -0.106 ± 0.036.

For E71I, the abundance fitness was -0.261 ± 0.037.

On to E71A, for which the abundance fitness was -0.095 ± 0.029.

Consider E71K, for which the abundance fitness turned out to be 0 ± 0.034.

As for E71S, the abundance fitness was -0.055 ± 0.026.

Turning to E71T, the abundance fitness is -0.052 ± 0.028.

As for E71L, the abundance fitness is -0.232 ± 0.026.

For E71R, the abundance fitness is -0.059 ± 0.025.

On to E71Q, for which the abundance fitness is -0.038 ± 0.031.

Take E71C: the abundance fitness is -0.149 ± 0.038.

Consider E71H, for which the abundance fitness is -0.081 ± 0.035.

Regarding E71D, the abundance fitness stood at 0 ± 0.036.

For E71G, the abundance fitness is -0.041 ± 0.03.

For the variant K70W, the abundance fitness was -0.323 ± 0.034.

On to K70L, for which the abundance fitness is -0.306 ± 0.024.

Take K70I: the abundance fitness is -0.311 ± 0.033.

Regarding K70D, the abundance fitness is -0.055 ± 0.038.

With K70T, the abundance fitness was -0.098 ± 0.026.

In the case of K70V, the abundance fitness is -0.168 ± 0.026.

Take K70R: the abundance fitness was -0.081 ± 0.024.

As for K70C, the abundance fitness was -0.115 ± 0.033.

In the case of K70F, the abundance fitness was -0.256 ± 0.034.

For the variant K70N, the abundance fitness is -0.076 ± 0.03.

K70Y: the abundance fitness was -0.153 ± 0.029.

With K70M, the abundance fitness was -0.17 ± 0.029.

Take K70G: the abundance fitness was -0.093 ± 0.026.

With K70Q, the abundance fitness is -0.078 ± 0.031.

Consider K70H, for which the abundance fitness is -0.096 ± 0.032.

For the variant K70E, the abundance fitness is -0.061 ± 0.033.

Regarding K70P, the abundance fitness was -0.052 ± 0.027.

For K70S, the abundance fitness was -0.054 ± 0.024.

For the variant K70A, the abundance fitness was -0.1 ± 0.027.

With R67F, the abundance fitness is -0.095 ± 0.036.

In the case of R67E, the abundance fitness came to 0.005 ± 0.024.

As to R67G, the abundance fitness is -0.038 ± 0.019.

Turning to R67W, the abundance fitness was -0.182 ± 0.024.

For R67P, the abundance fitness was -0.808 ± 0.044.

Take R67D: the abundance fitness was -0.018 ± 0.032.

For R67K, the abundance fitness was found to be 0.002 ± 0.027.

Turning to R67C, the abundance fitness is -0.055 ± 0.029.

R67T: the abundance fitness was -0.018 ± 0.026.

Consider R67I, for which the abundance fitness was -0.159 ± 0.04.

Turning to R67N, the abundance fitness was 0.017 ± 0.033.

Turning to R67V, the abundance fitness was -0.079 ± 0.021.

For the variant R67S, the abundance fitness was -0.013 ± 0.023.

R67L: the abundance fitness was -0.105 ± 0.022.

On to R67Y, for which the abundance fitness was -0.06 ± 0.036.

Turning to R67Q, the abundance fitness is 0.001 ± 0.028.

For R67M, the abundance fitness was -0.064 ± 0.025.

With R67A, the abundance fitness was -0.01 ± 0.022.

As to V62Y, the abundance fitness is -0.248 ± 0.03.

With V62T, the abundance fitness was -0.25 ± 0.025.

Take V62W: the abundance fitness was -0.4 ± 0.034.

Turning to V62S, the abundance fitness was -0.666 ± 0.027.

With V62R, the abundance fitness is -0.917 ± 0.037.

V62Q: the abundance fitness was -0.745 ± 0.042.

As for D64I, the abundance fitness was -0.788 ± 0.051.

Regarding D64G, the abundance fitness is -0.038 ± 0.028.

Take D64E: the abundance fitness was -0.011 ± 0.031.

As to D64R, the abundance fitness was -0.049 ± 0.025.

Consider D64H, for which the abundance fitness was -0.045 ± 0.028.

As for D64M, the abundance fitness is -0.247 ± 0.031.

With D64C, the abundance fitness is -0.295 ± 0.031.

D64F: the abundance fitness was -0.354 ± 0.031.

As to D64S, the abundance fitness was -0.023 ± 0.023.

D64A: the abundance fitness is -0.081 ± 0.025.

For D64Q, the abundance fitness is -0.013 ± 0.029.

As for D64L, the abundance fitness is -0.466 ± 0.025.

Regarding D64V, the abundance fitness is -0.593 ± 0.032.

In the case of D64W, the abundance fitness was -0.222 ± 0.033.

In the case of D64Y, the abundance fitness is -0.252 ± 0.031.

Take D64T: the abundance fitness was -0.109 ± 0.026.

As for D64N, the abundance fitness was -0.055 ± 0.03.

Consider D64K, for which the abundance fitness was -0.06 ± 0.029.

Take D64P: the abundance fitness is -0.51 ± 0.034.

The record behind these values is the Human Domainome abundance scans (Beltran et al. 2025).
